{"source": "paper PMC4829420", "about": "“The innate immune sensor IFI16 recognizes foreign DNA in the nucleus by scanning along the duplex” (eLife, 2015)", "target": "the molecule itself", "test": "single-molecule fluorescence imaging (TIRF) with intensity analysis; Cy5-labelled IFI16 (3 to 5 nM) supplied under constant flow (20 ul/min) to single-biotinylated lambda dsDNA anchored on a coverslip; number of molecules per cluster from particle intensity against single molecules at 1 nM; 40 mM HEPES pH 7.4, 160 mM KCl, 1 mM EDTA, 2 mM DTT, 10% glycerol, 0.1% Triton-X100, 250 ug/ml BSA; room temperature"}
{"protein": "Human full-length IFI16 (interferon-inducible protein 16) (natural protein, UniProt Q16666 1-785, looked up, DyLight-550, DyLight-650 or Cy5 fluorophore incorporated by maleimide chemistry; label to protein ratio ~1:1, interferon-inducible protein 16 (IFI16), human, full length; FRET assays mixed DyLight-550 and DyLight-650 labelled protein 1:1; microscopy used Cy5-labelled protein; also called IFI16-550; IFI16-650; source: E. coli T7 express cells (NEB), as described in Morrone et al., 2014) MGKKYKNIVLLKGLEVINDYHFRMVKSLLSNDLKLNLKMREEYDKIQIADLMEEKFRGDAGLGKLIKIFEDIPTLEDLAETLKKEKLKVKGPALSRKRKKEVDATSPAPSTSSTVKTEGAEATPGAQKRKKSTKEKAGPKGSKVSEEQTQPPSPAGAGMSTAMGRSPSPKTSLSAPPNSSSTENPKTVAKCQVTPRRNVLQKRPVIVKVLSTTKPFEYETPEMEKKIMFHATVATQTQFFHVKVLNTSLKEKFNGKKIIIISDYLEYDSLLEVNEESTVSEAGPNQTFEVPNKIINRAKETLKIDILHKQASGNIVYGVFMLHKKTVNQKTTIYEIQDDRGKMDVVGTGQCHNIPCEEGDKLQLFCFRLRKKNQMSKLISEMHSFIQIKKKTNPRNNDPKSMKLPQEQRQLPYPSEASTTFPESHLRTPQMPPTTPSSSFFTKKSEDTISKMNDFMRMQILKEGSHFPGPFMTSIGPAESHPHTPQMPPSTPSSSFLTTKSEDTISKMNDFMRMQILKEGSHFPGPFMTSIGPAESHPHTPQMPPSTPSSSFLTTLKPRLKTEPEEVSIEDSAQSDLKEVMVLNATESFVYEPKEQKKMFHATVATENEVFRVKVFNIDLKEKFTPKKIIAIANYVCRNGFLEVYPFTLVADVNADRNMEIPKGLIRSASVTPKINQLCSQTKGSFVNGVFEVHKKNVRGEFTYYEIQDNTGKMEVVVHGRLTTINCEEGDKLKLTCFELAPKSGNTGELRSVIHSHIKVIKTRKNKKDILNPDSSMETSPDFFF", "values": [{"measurement": "stoichiometry N", "result": "≥ 8", "unit": "protomers per cluster"}]}
